Four molecules from patent US6358728B1, “Mutations in nucleic acid molecules encoding 11-CIS retinol dehydrogenase, the mutated proteins, and uses thereof” (The President & Fellows of Havard College, priority 1999, dated 2002) can be followed below.

Assay [1] addresses T1, wild type 11-cis retinol dehydrogenase (Homo sapiens, UniProt Q92781).
T1 construct: expressed in transfected cells; host or cells: COS-1 cells (microsomes), vector pSG5
T1 sequence (Q92781 1-318): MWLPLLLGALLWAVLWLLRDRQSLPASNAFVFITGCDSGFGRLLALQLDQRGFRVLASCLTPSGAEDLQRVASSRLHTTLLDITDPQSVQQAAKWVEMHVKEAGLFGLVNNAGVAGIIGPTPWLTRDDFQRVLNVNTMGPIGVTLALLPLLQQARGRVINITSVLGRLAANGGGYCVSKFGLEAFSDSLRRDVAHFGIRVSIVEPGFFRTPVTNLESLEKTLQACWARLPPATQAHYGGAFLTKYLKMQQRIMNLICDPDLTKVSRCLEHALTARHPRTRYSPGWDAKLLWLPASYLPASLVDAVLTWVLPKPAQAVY
Briefly: Km and Vmax of wild type enzyme, oxidation of 11-cis retinol to 11-cis retinal by microsomes, HPLC. The assay is classed as biochemical. The note with it: 2 μg microsomal protein, 8-minute incubations, 5 mM NAD, 37° C., Lineweaver-Burk, average of duplicates 7.1 and 9.6. As to the method: To monitor the ability of the wild-type and mutant enzymes to catalyze the oxidation of 11-cis retinol to 11-cis retinal, 11-cis retinol, which had been synthesized by reduction of 11-cis retinal with NaBH4 and stored under argon at −80° C., was added to reaction mixtures containing microsomes from the transfected cells.
The enzyme reactions, in a total volume of 100 μp were carried out in 50 mM Tris-HCl buffer pH7.5 containing 5 mM NAD or NADH, […] 11-cis retinol, or 11-cis retinal, and microsomes at 37° C. All manipulations of retinoids were performed in dim light. The reactions were stopped by putting the tubes on ice, and the retinoids were immediately extracted with 200 μl n-hexane. Subsequently, 75 μl aliquots were analyzed by reverse-phase HPLC using a C18 column. The mobile phase was acetonitrile/water (85/15, v/v), and the column was eluted under isocratic conditions at a flow rate of 1 ml/min. 11-cis retinol and 11-cis retinal eluted at 12.0-12.2 and 14.0-14.3 minutes, respectively. Retinoids were quantified at 320 and 370 nm. […] Formed 11-cis retinal was quantified in the HPLC analyses, and the Km and Vmax values were calculated from Lineweaver-Burk plots. The values were compensated for the extraction efficiency (60-70%, as determined experimentally).

In assay [2] the test system is 11-cis retinol dehydrogenase (RDH5). Briefly: Relative activities of wild type and mutant enzymes, oxidation of 11-cis retinol (forward reaction), microsomes, HPLC. The note with it: for ability to catalyze oxidation of 11-cis-retinol to 11-cis-retinal: 10 minutes at 37° C., 5 mM NAD, 50 μM 11-cis-retinol, mutant 20 μg, wild type 2 μg microsomes; for fold activity above background activity (mock transformants) / fold less activity than wild type enzyme: after 40 minutes incubation. Format: biochemical, human. On the procedure: (§1) The relative activities of the wild type and mutant enzymes were then determined. To do this, microsomes containing a mutant enzyme (20 μg), or wild type enzyme(2 μg) together with 18 μg of microsomal protein from mock-transfected cells, to standardize the experimental conditions, or no enzyme were combined with 50 mM Tris-HCl buffer (pH 7.5), containing 5 mM of NAD, and 50 μM 11-cis-retinol (forward, oxidation reaction) or 5 mM NADH and 50 μM 11-cis-retinal (reverse, reduction reaction) in a total volume of 100 μl. 50 μM 11-cis retinol is approximately a seven-fold higher substrate concentration than the estimated Km value for the wild-type enzyme. The mixtures were incubated for 10 minutes at 37° C., after which the reactions were stopped by putting the mixtures on ice. Retinoids were extracted immediately with 200 μl of n-hexane. Subsequently, 75 μl aliquots were analyzed via reversed phase HPLC using a C18 column. The mobile phase was acetonitrile/water (85:15 v/v), and the column was eluted under isocratic conditions at a flow rate of 1 ml/min. The 11-cis-retinol eluted at 12.0-12.2 minutes, and 11-cis-retinal at 14.0-14.3 minutes. Retinoids were quantified at 320 (retinol) and 370 (retinal) nm. Relative activities of wild-type and mutant enzymes were calculated as the ratio of formed 11-cis retinal by transfected versus mock-transfected microsomes. The results were normalized for the total extracted retinoid content from each reaction.
The Gly238Trp mutant was tested further, to determine if it had any activity, by incubating for 20 and 40 minute periods before extracting retinoids. Wild type and Ser73Phe mutant were used as controls.

The target in assay [3] is T2, 11-cis retinol dehydrogenase (RDH5) (Homo sapiens, UniProt Q92781).
T2 construct: expressed in transfected cells; host or cells: COS-1 cells (microsomes), vector pSG5
T2 sequence (Q92781 1-318): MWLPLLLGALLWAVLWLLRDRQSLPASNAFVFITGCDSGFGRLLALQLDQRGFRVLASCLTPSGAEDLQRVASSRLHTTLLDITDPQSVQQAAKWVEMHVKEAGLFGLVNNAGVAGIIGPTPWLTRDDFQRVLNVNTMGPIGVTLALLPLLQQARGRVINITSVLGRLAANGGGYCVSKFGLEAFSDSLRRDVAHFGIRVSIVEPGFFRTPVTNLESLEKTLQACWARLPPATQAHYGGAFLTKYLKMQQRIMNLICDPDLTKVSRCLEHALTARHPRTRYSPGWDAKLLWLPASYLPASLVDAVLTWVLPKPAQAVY
Put plainly: Relative activities of wild type and mutant enzymes, reduction of 11-cis retinal (reverse reaction), microsomes, HPLC. The note with it: 10 minutes at 37° C., 5 mM NADH, 50 μM 11-cis-retinal. Format: biochemical. As to the method: as §1, with “The results were normalized for the total extracted retinoid content from each reaction.” left out

Take `CC1=C(/C=C/C(C)=C/C=C\C(C)=C\CO)C(C)(C)CCC1` [11-cis retinol]: the Vmax in assay [1] was determined as 8.4 nmol/mg protein/minute.

B1: wild type enzyme: wild type human 11-cis retinol dehydrogenase (RDH5) expressed in COS-1 cells (protein, UniProt Q92781 1-318, looked up)
Retinol dehydrogenase 5: MWLPLLLGALLWAVLWLLRDRQSLPASNAFVFITGCDSGFGRLLALQLDQRGFRVLASCLTPSGAEDLQRVASSRLHTTLLDITDPQSVQQAAKWVEMHVKEAGLFGLVNNAGVAGIIGPTPWLTRDDFQRVLNVNTMGPIGVTLALLPLLQQARGRVINITSVLGRLAANGGGYCVSKFGLEAFSDSLRRDVAHFGIRVSIVEPGFFRTPVTNLESLEKTLQACWARLPPATQAHYGGAFLTKYLKMQQRIMNLICDPDLTKVSRCLEHALTARHPRTRYSPGWDAKLLWLPASYLPASLVDAVLTWVLPKPAQAVY
In the case of B1, in assay [2], the “ability to catalyze oxidation of 11-cis-retinol to 11-cis-retinal” value (“ability to catalyze oxidation” for short) was “exhibited the expected ability to catalyze the oxidation” and the “fold activity above background activity (mock transformants)” value (from here on “fold activity above background activity”) turned out to be 42.9 ± 4.5 fold. In addition, the “ability to catalyze reduction of 11-cis-retinal to 11-cis-retinol (reverse reaction)” value in assay [3] was “catalyzed the reverse reaction”.

B2: Ser73Phe mutant: mutant human 11-cis retinol dehydrogenase (RDH5), Ser to Phe at amino acid 73 (protein, UniProt Q92781 1-318, looked up, variant S73F)
Retinol dehydrogenase 5: MWLPLLLGALLWAVLWLLRDRQSLPASNAFVFITGCDSGFGRLLALQLDQRGFRVLASCLTPSGAEDLQRVAFSRLHTTLLDITDPQSVQQAAKWVEMHVKEAGLFGLVNNAGVAGIIGPTPWLTRDDFQRVLNVNTMGPIGVTLALLPLLQQARGRVINITSVLGRLAANGGGYCVSKFGLEAFSDSLRRDVAHFGIRVSIVEPGFFRTPVTNLESLEKTLQACWARLPPATQAHYGGAFLTKYLKMQQRIMNLICDPDLTKVSRCLEHALTARHPRTRYSPGWDAKLLWLPASYLPASLVDAVLTWVLPKPAQAVY
On to B2, for which, in assay [2], the “ability to catalyze oxidation” value is “residual activity”, the “fold activity above background activity” value was determined as 9.1±1 fold and the “fold less activity than wild type enzyme” value is “approximately 5 fold”.

B3: Gly238Trp mutant: mutant human 11-cis retinol dehydrogenase (RDH5), Gly to Trp at amino acid 238 (protein, UniProt Q92781 1-318, looked up, variant G238W)
Retinol dehydrogenase 5: MWLPLLLGALLWAVLWLLRDRQSLPASNAFVFITGCDSGFGRLLALQLDQRGFRVLASCLTPSGAEDLQRVASSRLHTTLLDITDPQSVQQAAKWVEMHVKEAGLFGLVNNAGVAGIIGPTPWLTRDDFQRVLNVNTMGPIGVTLALLPLLQQARGRVINITSVLGRLAANGGGYCVSKFGLEAFSDSLRRDVAHFGIRVSIVEPGFFRTPVTNLESLEKTLQACWARLPPATQAHYWGAFLTKYLKMQQRIMNLICDPDLTKVSRCLEHALTARHPRTRYSPGWDAKLLWLPASYLPASLVDAVLTWVLPKPAQAVY
Turning to B3, in assay [2], the “ability to catalyze oxidation” value is “no activity above background level”, the “fold activity above background activity” value is 2.2±0.14 fold and the “fold less activity than wild type enzyme” value was “approximately 19 fold”.
